Results on one molecule are retold here after US20260028424A1 (GRANULAR THERAPEUTICS, published 2026).

In test [1] the target is c-Kit (antigen of the binding assay of FIG. 9A) (Homo sapiens (Human), UniProt P10721 26-524). Description: plate binding assay on Human c-KIT, A450-A630 (ratio corrected).
In test [2] the target is T1, CD203c (ENPP3) (antigen of the binding assay of FIG. 9B) (Homo sapiens (Human), UniProt O14638 31-875).
T1 construct: not shown: His tag of the recombinant protein
T1 sequence: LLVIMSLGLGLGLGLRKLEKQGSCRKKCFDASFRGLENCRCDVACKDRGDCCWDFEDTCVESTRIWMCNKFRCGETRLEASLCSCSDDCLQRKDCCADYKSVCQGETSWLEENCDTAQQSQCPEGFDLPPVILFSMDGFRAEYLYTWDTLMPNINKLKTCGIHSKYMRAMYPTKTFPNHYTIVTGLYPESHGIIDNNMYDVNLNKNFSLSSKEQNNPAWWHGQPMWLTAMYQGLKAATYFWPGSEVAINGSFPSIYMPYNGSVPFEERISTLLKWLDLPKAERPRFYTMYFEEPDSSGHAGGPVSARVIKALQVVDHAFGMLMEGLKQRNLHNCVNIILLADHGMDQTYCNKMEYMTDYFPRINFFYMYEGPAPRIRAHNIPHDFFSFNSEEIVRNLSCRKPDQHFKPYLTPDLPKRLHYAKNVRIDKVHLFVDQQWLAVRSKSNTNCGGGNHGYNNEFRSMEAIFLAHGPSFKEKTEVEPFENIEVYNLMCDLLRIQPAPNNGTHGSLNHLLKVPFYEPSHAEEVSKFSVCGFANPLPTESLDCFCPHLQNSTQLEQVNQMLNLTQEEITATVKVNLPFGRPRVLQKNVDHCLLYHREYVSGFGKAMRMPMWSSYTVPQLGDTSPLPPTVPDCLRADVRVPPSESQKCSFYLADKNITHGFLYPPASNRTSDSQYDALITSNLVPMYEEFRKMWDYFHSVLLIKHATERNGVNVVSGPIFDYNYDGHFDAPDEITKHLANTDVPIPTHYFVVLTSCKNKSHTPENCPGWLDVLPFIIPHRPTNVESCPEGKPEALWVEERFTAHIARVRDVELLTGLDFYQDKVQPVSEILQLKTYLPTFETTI
Description: plate binding assay on Human ENPP3, A450-A630 (ratio corrected).

c-Kit (antigen of the binding assay of FIG. 9A), sequence (P10721 26-524 limits assumed): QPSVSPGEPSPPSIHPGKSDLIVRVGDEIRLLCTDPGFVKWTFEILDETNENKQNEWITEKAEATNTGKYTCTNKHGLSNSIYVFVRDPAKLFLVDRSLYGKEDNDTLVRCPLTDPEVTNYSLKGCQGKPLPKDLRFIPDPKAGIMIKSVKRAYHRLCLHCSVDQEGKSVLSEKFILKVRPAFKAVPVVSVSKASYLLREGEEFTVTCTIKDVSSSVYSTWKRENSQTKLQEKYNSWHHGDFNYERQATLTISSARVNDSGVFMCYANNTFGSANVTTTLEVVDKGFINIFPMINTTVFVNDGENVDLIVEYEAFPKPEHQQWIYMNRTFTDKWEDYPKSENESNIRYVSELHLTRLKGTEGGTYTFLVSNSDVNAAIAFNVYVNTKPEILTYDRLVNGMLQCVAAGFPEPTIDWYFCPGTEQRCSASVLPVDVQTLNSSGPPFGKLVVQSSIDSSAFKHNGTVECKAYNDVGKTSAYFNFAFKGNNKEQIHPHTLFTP

B1: bispecific pair with alternative common light chain VL3: MH1 VH / 2.14_1 VH / VL3 (bispecific antibody, V domains shown)
VH 1: QVQLVQSGAEVKKPGASVKVSCKASGYTFTDYYMNWVRQAPGQGLEWMGRIYPGSGNTYYAQKFQGRVTMTRDTSTSTVYMELSSLRSEDTAVYYCARGVYYYDYWGQGTLVTVSS
VH 2: QVQLQESGPGLVKPSQTLSLTCTVSGGSISSGGYYWSWIRQHPGKGLEWIGIIYYSGSTYYNPSLKSRVTISVDTSKNQFSLKLNSVTAADTAVFYCARVAIVTTIPGGMDVWGQGTTVTVSS
VL: EIVLTQSPDFQSVTPKEKVTITCRASQGIRTNLAWYQQKPDQSPKLLIKAASSLQSGVPSRFSGSGSGTDFTLTINSLEAEDAATYYCQQYNSYPRTFGQGTKVEIK
As to B1, the “EC50 (read off the curve)” value in test [1] was around 0.1 µg/mL. Besides, the binding result in test [2] is “no binding (tested: 200 µg/ml)”.
